Laboratory results as given in patent US20100285526.

How the values were obtained:
[1] = system: GST-IL11(A) fusion protein [GST: P08515]
[2] = system: GST-IL11(LV-) fusion protein [GST: P08515]
[3] = system: GST-IL6 fusion protein [GST: P08515]
[4] = system: GST-Thymosin β4 fusion protein [GST: P08515]
His-IL11 fusion protein = system: T1, His-IL11 fusion protein
T1 sequence: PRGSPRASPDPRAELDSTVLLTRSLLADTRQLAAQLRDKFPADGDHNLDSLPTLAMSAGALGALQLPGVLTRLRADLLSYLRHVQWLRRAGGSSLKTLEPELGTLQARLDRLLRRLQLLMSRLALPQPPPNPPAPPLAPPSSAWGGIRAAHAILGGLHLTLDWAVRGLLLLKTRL

[5] = system: MBP-IL11 fusion protein [MBP: P0AEX9]

| Substance | thrombin cleavage of the fusion protein, SDS-PAGE time course [1] | choice of cleavage site within the linker [1] | integrity of released IL-11, MALDI-TOF/MS [1] | thrombin cleavage of the fusion protein, SDS-PAGE time course [2] | thrombin cleavage of the fusion protein, SDS-PAGE time course [3] | integrity of released thymosin β4, MALDI-TOF/MS [4] | thrombin cleavage of the fusion protein, SDS-PAGE time course [4] | thrombin cleavage of the fusion protein, SDS-PAGE time course (His-IL11 fusion protein) | thrombin cleavage of the fusion protein, SDS-PAGE time course [5] |
| --- | --- | --- | --- | --- | --- | --- | --- | --- | --- |
| bovine thrombin | The GST fusion partner was efficiently cleaved by both bovine and human thrombin in the concentration ranges and the time points tested | – | – | – | – | – | – | – | – |
| human thrombin | The GST fusion partner was efficiently cleaved by both bovine and human thrombin in the concentration ranges and the time points tested | – | – | – | – | – | – | – | – |
| thrombin (species not stated) | – | thrombin cleavage occurs not at Arg↓Gly but at Arg↓Ala | it was confirmed that intact IL-11 protein was generated after thrombin cleavage of GST-IL11(A) | The fusion protein GST-IL11(LV-) (44 kDa) gradually disappeared, and the amount of IL-11(LV-) (18 kDa) increased as reaction time passed | The fusion protein GST-IL6 (46 kDa) gradually disappeared, and the amount of IL-6 (22 kDa) increased as reaction time passed | it was confirmed that intact thymosin β4 protein was generated after thrombin cleavage of GST-Thymosin β4 | The fusion protein GST-Thymosin β4 (31 kDa) gradually disappeared, and the amount of thymosin β4 (5 kDa) increased as reaction time passed | The fusion protein His-IL11 (22 kDa) gradually disappeared, and the amount of IL11 (18 kDa) increased as reaction time passed | The fusion protein MBP-IL11 (60 kDa) gradually disappeared, and the amount of IL11 (18 kDa) increased as reaction time passed |
